To fix the notation:
T1: Trop2 (UniProt P09758 27-323, limits assumed)
T1 sequence (looked up): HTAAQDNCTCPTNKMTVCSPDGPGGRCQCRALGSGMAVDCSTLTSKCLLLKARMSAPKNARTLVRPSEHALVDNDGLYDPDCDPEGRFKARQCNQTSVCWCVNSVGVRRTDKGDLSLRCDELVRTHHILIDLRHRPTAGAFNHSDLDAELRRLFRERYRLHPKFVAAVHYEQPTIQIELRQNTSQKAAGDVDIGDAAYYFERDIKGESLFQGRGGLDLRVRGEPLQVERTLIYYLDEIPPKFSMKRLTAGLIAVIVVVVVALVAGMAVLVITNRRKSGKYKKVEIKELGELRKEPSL

B1: Reference ADC-2 (Sacituzumab-Deruxtecan) (antibody, human IgG1, kappa, V domains shown)
VH: QVQLQQSGSELKKPGASVKVSCKASGYTFTNYGMNWVKQAPGQGLKWMGWINTYTGEPTYTDDFKGRFAFSLDTSVSTAYLQISSLKADDTAVYFCARGGFGSSYWYFDVWGQGSLVTVSS
VL: DIQLTQSPSSLSASVGDRVSITCKASQDVSIAVAWYQQKPGKAPKLLIYSASYRYTGVPDRFSGSGSGTDFTLTISSLQPEDFAVYYCQQHYITPLTFGAGTKVEIKR
modifications: Deruxtecan linker-drug conjugated after TCEP reduction of disulfide bonds (cysteine positions not stated); mean n=4.18 per antibody
B2: ADC-II-11-a (antibody, human IgG1, kappa, V domains shown)
VH: QVQLQQSGSELKKPGASVKVSCKASGYTFTNYGMNWVKQAPGQGLKWMGWINTYTGEPTYTDDFKGRFAFSLDTSVSTAYLQISSLKADDTAVYFCARGGFGSSYWYFDVWGQGSLVTVSS
VL: DIQLTQSPSSLSASVGDRVSITCKASQDVSIAVAWYQQKPGKAPKLLIYSASYRYTGVPDRFSGSGSGTDFTLTISSLQPEDFAVYYCQQHYITPLTFGAGTKVEIKR
modifications: linker-drug L-II-3 conjugated after TCEP reduction of disulfide bonds (cysteine positions not stated); mean n=3.73 per antibody
B3: ADC-III-28 (antibody, human IgG1, kappa, V domains shown)
VH: QVQLQQSGSELKKPGASVKVSCKASGYTFTNYGMNWVKQAPGQGLKWMGWINTYTGEPTYTDDFKGRFAFSLDTSVSTAYLQISSLKADDTAVYFCARGGFGSSYWYFDVWGQGSLVTVSS
VL: DIQLTQSPSSLSASVGDRVSITCKASQDVSIAVAWYQQKPGKAPKLLIYSASYRYTGVPDRFSGSGSGTDFTLTISSLQPEDFAVYYCQQHYITPLTFGAGTKVEIKR
modifications: linker-drug L-III-30 conjugated after TCEP reduction of disulfide bonds (cysteine positions not stated); mean n=3.67 per antibody

This test concerns the target T1, Trop2. The test can be described thus: cell-based or functional assay.
Consider B1, for which the “IC50 (nM), inhibition of in vitro proliferation of Colo205 cells (CTG, 6 days)” value came to 152 nM and the “IC50 (nM), inhibition of in vitro proliferation of SK-OV-3 cells (CTG, 6 days)” value is 501 nM.

With B2, the “IC50 (nM), inhibition of in vitro proliferation of Colo205 cells (CTG, 6 days)” value is 121 nM and the “IC50 (nM), inhibition of in vitro proliferation of SK-OV-3 cells (CTG, 6 days)” value was determined as 448 nM.

With B3, the “IC50 (nM), inhibition of in vitro proliferation of Colo205 cells (CTG, 6 days)” value was found to be 77.6 nM and the “IC50 (nM), inhibition of in vitro proliferation of SK-OV-3 cells (CTG, 6 days)” value is 394 nM.

For the origin of these results see patent publication US20230212182A1 (DUALITY BIOLOGICS SUZHOU, published 2023).
